What is called Km is the concentration of substrate that gives half-maximal velocity. By kcat is commonly meant the number of substrate molecules converted per active site and unit of time at saturation. By kcat/Km is commonly meant the turnover number divided by the Michaelis constant. The term stoichiometry N denotes the number of molecules, sites or subunits per partner or assembly.

The values below come from PMC8305194, “Structural, Mechanistic, and Functional Insights into an Arthrobacter nicotinovorans Molybdenum Hydroxylase Involved in Nicotine Degradation” (Molecules, 2021).

Substrate in data set [1]: CNCCCC(=O)c1ccc(O)nc1
Description: purified protein. To be noted: 500 μM PMS, 50 μM DCIP, aerobic, 30 °C, Tris-HCl pH 8.0. Type of data set: biochemical, Paenarthrobacter nicotinovorans.

Data set [2] concerns the molecule itself. Nature of the data set: crystal structure; Kdh holoenzyme crystallised by hanging-drop vapor diffusion at 14 °C; 1% tryptone, 0.1 M Tris-HCl pH 8.0, 25% PEG 3350; space group P212121, two heterotrimers per asymmetric unit; 3.4 Å.

B1: Kdh holoenzyme (KdhL, KdhM, KdhS); 6-hydroxypseudooxynicotine 2-oxidoreductase; ketone dehydrogenase (Paenarthrobacter nicotinovorans; F269A) (protein)
chain: MMAKAKALIPDNGRAGADEGNRQAWIGQEVLRREDRRLLTGTATFAGDLGVPGQLHMRIVRSTQAHARIVSIDATEAEKTPGVRMVITSEHTRHLGSVLLEELGYHEIYENIEDFSHPVLAVDKVLYVGQPVVAVLAVDPYLAEDAAELVSIEYEPLPVLLDPEEALTGKVELFPGRGNEGARIKKAYGDIDRAFAEAEHVIRHKYVTNRHSGVPMEPRAVVVQPDPARDTLFIWGTVHVHDNRRIIAKMLNLPEVNVRMKHVEIGGSAGVKGGVFPENVVAAWAARTLGVPIKWTEDRVEHMTSTSHAREMVHKLELALDAEGRILGMKDEIFHNHGAYFRQAEPLVSDITAGIVFGPYRVPAYDATLHAVFTNKTPVGAYRAPGRYESTFARERIFDLACAEIGLSKTEFRRRNLLTAEDLPWTPGLDIVHEPYHFDSGDVVKHFNEALEAANFSEWLEESKRLRADGRKVGVGLGVLMDKAGLGLFETGGVEVSRAGRVTVKTGGSSVGQGIETVLAQIVAEELQIAPENIDIVHSDTELIPDGVGSWSSRSTVLAGGAARKAALAVVEKARRLASEMLEADPDDLELTAGSFKVKGTDQQISLYEIAAARDPFTARADNDEPGLAADAVYMNNAMNYPYGVTLVQIELDPDTGGHRILRFSTSTEAGRVINPLTTRGQIIGAAVQGIGGALYEEFLYEEDGQPITTSFMDYLLPSAQEMPNVDCFVTEDAKSPDNPFGAKGLGEIGIIAAGAAIASAIDDAIADGVHTDRLPVTPEQIFSRCQGLNKAER
notes: kdhLMS co-expressed from pART2-kdhLMS in A. nicotinovorans pAO1; Ni-NTA (tag not described) and Superdex 200; KdhL 87 kDa, KdhM 287 residues, KdhS 160 residues; heterotrimer, dimer of heterotrimers in crystal; with 6-hydroxypseudooxynicotine dehydrogenase complex subunit alpha; 6-hydroxypseudooxynicotine dehydrogenase complex subunit beta
B1: in data set [1], the Km came to 25.98 ± 2.73 µM, the turnover number (kcat) worked out at 2.3 ± 0.07 s⁻¹ and the kcat/Km amounted to 90000 ± 30000 M⁻¹ s⁻¹.

B2: Kdh holoenzyme (KdhL, KdhM, KdhS); 6-hydroxypseudooxynicotine 2-oxidoreductase; ketone dehydrogenase (Paenarthrobacter nicotinovorans; R383A) (protein)
chain: MMAKAKALIPDNGRAGADEGNRQAWIGQEVLRREDRRLLTGTATFAGDLGVPGQLHMRIVRSTQAHARIVSIDATEAEKTPGVRMVITSEHTRHLGSVLLEELGYHEIYENIEDFSHPVLAVDKVLYVGQPVVAVLAVDPYLAEDAAELVSIEYEPLPVLLDPEEALTGKVELFPGRGNEGARIKKAYGDIDRAFAEAEHVIRHKYVTNRHSGVPMEPRAVVVQPDPARDTLFIWGTVHVHDNRRIIAKMLNLPEVNVRMKHVEIGGSFGVKGGVFPENVVAAWAARTLGVPIKWTEDRVEHMTSTSHAREMVHKLELALDAEGRILGMKDEIFHNHGAYFRQAEPLVSDITAGIVFGPYRVPAYDATLHAVFTNKTPVGAYAAPGRYESTFARERIFDLACAEIGLSKTEFRRRNLLTAEDLPWTPGLDIVHEPYHFDSGDVVKHFNEALEAANFSEWLEESKRLRADGRKVGVGLGVLMDKAGLGLFETGGVEVSRAGRVTVKTGGSSVGQGIETVLAQIVAEELQIAPENIDIVHSDTELIPDGVGSWSSRSTVLAGGAARKAALAVVEKARRLASEMLEADPDDLELTAGSFKVKGTDQQISLYEIAAARDPFTARADNDEPGLAADAVYMNNAMNYPYGVTLVQIELDPDTGGHRILRFSTSTEAGRVINPLTTRGQIIGAAVQGIGGALYEEFLYEEDGQPITTSFMDYLLPSAQEMPNVDCFVTEDAKSPDNPFGAKGLGEIGIIAAGAAIASAIDDAIADGVHTDRLPVTPEQIFSRCQGLNKAER
notes: as for B1
B2: in data set [1], the Michaelis constant (Km) amounted to 21.4 ± 2.3 µM, the turnover number (kcat) came to 6.32 ± 0.16 s⁻¹ and the catalytic efficiency (kcat/Km) turned out to be 300000 ± 70000 M⁻¹ s⁻¹.

B3: Kdh holoenzyme (heterotrimer of KdhL, KdhM and KdhS) (complex, Arthrobacter nicotinovorans)
chain 1: MMAKAKALIPDNGRAGADEGNRQAWIGQEVLRREDRRLLTGTATFAGDLGVPGQLHMRIVRSTQAHARIVSIDATEAEKTPGVRMVITSEHTRHLGSVLLEELGYHEIYENIEDFSHPVLAVDKVLYVGQPVVAVLAVDPYLAEDAAELVSIEYEPLPVLLDPEEALTGKVELFPGRGNEGARIKKAYGDIDRAFAEAEHVIRHKYVTNRHSGVPMEPRAVVVQPDPARDTLFIWGTVHVHDNRRIIAKMLNLPEVNVRMKHVEIGGSFGVKGGVFPENVVAAWAARTLGVPIKWTEDRVEHMTSTSHAREMVHKLELALDAEGRILGMKDEIFHNHGAYFRQAEPLVSDITAGIVFGPYRVPAYDATLHAVFTNKTPVGAYRAPGRYESTFARERIFDLACAEIGLSKTEFRRRNLLTAEDLPWTPGLDIVHEPYHFDSGDVVKHFNEALEAANFSEWLEESKRLRADGRKVGVGLGVLMDKAGLGLFETGGVEVSRAGRVTVKTGGSSVGQGIETVLAQIVAEELQIAPENIDIVHSDTELIPDGVGSWSSRSTVLAGGAARKAALAVVEKARRLASEMLEADPDDLELTAGSFKVKGTDQQISLYEIAAARDPFTARADNDEPGLAADAVYMNNAMNYPYGVTLVQIELDPDTGGHRILRFSTSTEAGRVINPLTTRGQIIGAAVQGIGGALYEEFLYEEDGQPITTSFMDYLLPSAQEMPNVDCFVTEDAKSPDNPFGAKGLGEIGIIAAGAAIASAIDDAIADGVHTDRLPVTPEQIFSRCQGLN
chain 2: MKPPSFDYVVADSVEHALRLLADGGDDAKIIAGGQSLVPLLNFRMSRPSLLVDINRVPGLANIRKSDQTIAIGALTRHAKLTTSKTISQNLPILSEAAAWIAHPQIRNRGTIGGSLAHADAAAELPVVLLALDAYVTAQSLQGERKIPLKELLVSHFVSSILPGELIVEVNVPQLPHGSGAAFDEFSRRHGDYAIGGAASIVTLDEQGKCSRARITVLGGGSTAIRCQEAENILIDSTLSSHDIAAAAHAAVQGLDPVPTVHGSAQYRAQVIRTMVERTLAKALHRA
chain 3: MNAFRLTVEVNGVTHATDVEPRRLLADFLRDDLHLRGTRVGCEHGVCGSCTVLLDGQPVRSCTVLAVQANNSRIETVESLQKDGQLHPLQRSFSKCHALQCGFCTSGFLMTLKPLYDDEDVTLDATSAREAISGNICRCTGYQQIVEATVDAFHCRDHND
notes: KdhL, 87 kDa molybdopterin (MCD) subunit of Kdh, Arthrobacter nicotinovorans; KdhM, 32 kDa FAD subunit of Kdh, Arthrobacter nicotinovorans; contains 287 residues; KdhS, 17.6 kDa Fe2S2 subunit of Kdh, Arthrobacter nicotinovorans; has 160 residues; Heterotrimer with MCD, two Fe2S2 and FAD; two heterotrimers form the dimer seen in the crystal; also called ketone dehydrogenase; …
Regarding B3, the “stoichiometry N” value in data set [2] was 2.
